Values of other authors in publication PMC7290751.
pKd: −log10 of the molar value.

How the values were obtained:
[1] = molecular target: Kv1.2 (Homo sapiens) (UniProt P16389)
[2] = molecular target: Kv1.3 (Homo sapiens) (UniProt P22001)
Sequence of UniProt P22001 (P22001 whole entry): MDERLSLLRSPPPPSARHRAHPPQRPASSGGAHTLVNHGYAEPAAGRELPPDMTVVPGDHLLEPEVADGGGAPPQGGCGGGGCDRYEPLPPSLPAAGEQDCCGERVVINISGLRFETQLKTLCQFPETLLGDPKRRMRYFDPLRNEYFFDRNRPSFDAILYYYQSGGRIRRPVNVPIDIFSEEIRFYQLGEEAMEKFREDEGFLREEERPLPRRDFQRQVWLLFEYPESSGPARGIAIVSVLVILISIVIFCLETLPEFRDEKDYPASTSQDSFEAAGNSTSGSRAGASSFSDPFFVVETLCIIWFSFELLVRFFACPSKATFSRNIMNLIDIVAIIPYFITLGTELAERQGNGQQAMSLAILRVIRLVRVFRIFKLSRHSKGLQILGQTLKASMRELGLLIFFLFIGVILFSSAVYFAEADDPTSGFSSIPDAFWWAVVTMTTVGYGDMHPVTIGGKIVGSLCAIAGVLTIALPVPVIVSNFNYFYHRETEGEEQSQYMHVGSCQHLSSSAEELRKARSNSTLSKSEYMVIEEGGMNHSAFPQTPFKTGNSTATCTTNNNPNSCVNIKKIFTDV

Sequence of UniProt P16389 (P16389 whole entry): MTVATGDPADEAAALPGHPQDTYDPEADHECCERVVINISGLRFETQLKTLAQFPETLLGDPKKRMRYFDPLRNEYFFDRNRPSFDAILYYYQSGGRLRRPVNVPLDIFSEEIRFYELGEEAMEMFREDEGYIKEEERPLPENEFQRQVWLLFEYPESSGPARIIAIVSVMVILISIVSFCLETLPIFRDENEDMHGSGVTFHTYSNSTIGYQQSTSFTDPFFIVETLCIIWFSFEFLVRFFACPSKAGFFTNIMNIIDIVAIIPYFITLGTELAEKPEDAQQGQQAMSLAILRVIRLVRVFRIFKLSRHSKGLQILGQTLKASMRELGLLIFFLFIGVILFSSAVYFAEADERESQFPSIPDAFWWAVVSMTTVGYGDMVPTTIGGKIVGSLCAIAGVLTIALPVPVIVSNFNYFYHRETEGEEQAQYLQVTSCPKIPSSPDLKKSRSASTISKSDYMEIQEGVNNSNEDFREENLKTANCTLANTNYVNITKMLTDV

Substance: margatoxin (MgTx) (from UniProt P40755)
- pKd [1]: 11.19
- pKd [2]: 10.93
